How the values were obtained:
[1] = biological target: T1, hGLP-1R on the cell membrane (HEK293 cells overexpressing hGLP-1R) (human, UniProt P43220 24-463); experiment: flow cytometry on HEK293 cells overexpressing hGLP-1R, PE anti-human IgG Fc
T1 construct: whole, on cells; also called full-length hGLP-1R; human GLP-1R

[2] = biological target: T1, hGLP-1R on the cell membrane (HEK293 …); experiment: cell-based or functional assay
[3] = biological target: T1, hGLP-1R on the cell membrane (HEK293 …); experiment: cell-based or functional assay; remark: listed apart in the source
[4] = biological target: T2, mouse GLP-1R (NM_021332.2) on HEK293 cells (mouse, UniProt O35659 22-463); experiment: cell-based or functional assay
T2 sequence (looked up): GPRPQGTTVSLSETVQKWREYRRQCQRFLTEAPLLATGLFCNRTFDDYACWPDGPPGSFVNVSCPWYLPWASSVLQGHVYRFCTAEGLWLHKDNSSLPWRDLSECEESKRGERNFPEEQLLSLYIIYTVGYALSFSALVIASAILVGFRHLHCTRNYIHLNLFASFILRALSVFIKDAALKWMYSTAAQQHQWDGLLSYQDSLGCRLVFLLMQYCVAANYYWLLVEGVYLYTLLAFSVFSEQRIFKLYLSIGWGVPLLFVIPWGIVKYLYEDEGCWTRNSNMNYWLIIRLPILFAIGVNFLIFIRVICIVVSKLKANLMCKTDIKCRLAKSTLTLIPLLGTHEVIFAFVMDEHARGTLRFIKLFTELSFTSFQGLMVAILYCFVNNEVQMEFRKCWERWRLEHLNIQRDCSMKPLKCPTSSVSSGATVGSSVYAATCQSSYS

[5] = biological target: monkey GLP-1R (JN033215.1) on HEK293 cells (monkey); experiment: cell-based or functional assay
[6] = biological target: T3, extracellular domain of hGLP-1R (NP_002053.3, aa 24-145), recombinant protein (human, UniProt P43220 24-145); experiment: ELISA, plate coated with hGLP-1R extracellular domain, anti-human Fc-HRP detection
T3 construct: range 24-145; Expressed as a recombinant protein; also called hGLP-1R recombinant protein

Binder	EC50 [1]	IC50, inhibition of GLP-1 (2.5 ng/mL) activity in hGLP-1R-CRE-Luciferase-HEK293 reporter gene assay [2]	IC50 (nM), inhibition of GLP-1 (1 ng/ml) induced cAMP (HTRF) in HEK293 cells transfected with human GLP-1R [3]	IC50 (nM), inhibition of GLP-1 (6 ng/ml) induced cAMP (HTRF) in HEK293 cells transfected with mouse GLP-1R [4]	IC50 (nM), inhibition of GLP-1 (1 ng/ml) induced cAMP (HTRF) in HEK293 cells transfected with monkey GLP-1R [5]	EC50 [6]
P16289 (antibody, human IgG4 S228P, kappa, V domains shown, Fully human Fab from a phage library, linked to IgG4 (S228P) constant regions; also called anti-GLP-1R antibody P16289) VH: EVQLVETGGGVVQPGRSLRLSCAASGFTFSSYAMHWVRQAPGKGLEWVAVISYDGSNKYYADSVKGRFTISRDNSKNTLYLQMNSLRAEDTAVYYCAREGYSSSWTYYYYYYMDVWGKGTMVTVSS VL: DIQLTQSPSSLSASVGDRVTITCRASQGVSRALAWYQQKPGKAPKLLIYDASYLEDGVPSRFSGSGSGTDFTLTISSLQPEDFATYYCQQSYSTPYTFGQGTKLEIKR	> 137 nM	> 2820 nM	> 5500 nM	> 5500 nM	> 5500 nM	0.0048 nM
P16288 (antibody, human IgG4 S228P, kappa, V domains shown, Fully human Fab from a phage library, linked to IgG4 (S228P) constant regions; also called anti-GLP-1R antibody P16288) VH: QVQLVQSGAEMKKPGASVKVSCKTSGYRFSTYVISWVRQTPGQGLEWMGWISPYTGDIDYAQKFQGRVTITADESTSTAYMELSRLRSDDTAVYYCARERDGYNFPGMDVWGQGTTVTVSS VL: DIQLTQSPSFLSASVGDRVTITCRASQGISSYLAWYQQKPGRAPKLLIYSASTLQRGVPSRFSGSGSGTDFTLTISSLQPEDYATYYCQQADSFPPSFGPGTKVDIKR	9.9 nM	13.4 nM	211 nM		162 nM	0.013 nM
